Consider 15 molecules from patent US20100183625A1, “Treatment of Mucositis with Kallikrein Inhibitors” (Dyax Corp., priority 2009, published 2010).

B1: X67-E04: single point mutation of M142-H08 (P2); HV-CDR3 GGLLLWDRELKSNYFDY (antibody, V domains shown)
VL: QDIQMTQSPSSLSAFVGDRVTITCRASQPIDNYLNWYHQKPGKAPKLLIYAASRLQSGVPSRLSGSGFGTDFTLTISSLQPEDFGNYYCQQSYTVPYTFGGGTKVEIR
VH: EVQLLESGGGLVQPGGSLRLSCAASGFTFSAYSMIWVRQAPGKGLEWVSYIRPSGGRTTYADSVKGRFTISRDNSKNTLYLQMNSLRAEDTAVYYCARGGLLLWDRELKSNYFDYWGQGTLVTVSSASTKGPSVFPLAPSSKS
B2: X66-E09: single point mutation of M142-H08 (P1); HV-CDR3 GGLLLWFAELKSNYFDY (antibody, V domains shown)
VL: QDIQMTQSPSSLSAFVGDRVTITCRASQPIDNYLNWYHQKPGKAPKLLIYAASRLQSGVPSRLSGSGFGTDFTLTISSLQPEDFGNYYCQQSYTVPYTFGGGTKVEIR
VH: EVQLLESGGGLVQPGGSLRLSCAASGFTFSAYSMIWVRQAPGKGLEWVSYIRPSGGRTTYADSVKGRFTISRDNSKNTLYLQMNSLRAEDTAVYYCARGGLLLWFAELKSNYFDYWGQGTLVTVSSASTKGPSVFPLAPSSKS
B3: X67-C09: single point mutation of M142-H08 (P2); HV-CDR3 GGLLLWGRELKSNYFDY (antibody, V domains shown)
VL: QDIQMTQSPSSLSAFVGDRVTITCRASQPIDNYLNWYHQKPGKAPKLLIYAASRLQSGVPSRLSGSGFGTDFTLTISSLQPEDFGNYYCQQSYTVPYTFGGGTKVEIR
VH: EVQLLESGGGLVQPGGSLRLSCAASGFTFSAYSMIWVRQAPGKGLEWVSYIRPSGGRTTYADSVKGRFTISRDNSKNTLYLQMNSLRAEDTAVYYCARGGLLLWGRELKSNYFDYWGQGTLVTVSSASTKGPSVFPLAPSSKS
B4: X67-F08: single point mutation of M142-H08 (P2); HV-CDR3 GGLLLWYRELKSNYFDY (antibody, V domains shown)
VL: QDIQMTQSPSSLSAFVGDRVTITCRASQPIDNYLNWYHQKPGKAPKLLIYAASRLQSGVPSRLSGSGFGTDFTLTISSLQPEDFGNYYCQQSYTVPYTFGGGTKVEIR
VH: EVQLLESGGGLVQPGGSLRLSCAASGFTFSAYSMIWVRQAPGKGLEWVSYIRPSGGRTTYADSVKGRFTISRDNSKNTLYLQMNSLRAEDTAVYYCARGGLLLWYRELKSNYFDYWGQGTLVTVSSASTKGPSVFPLAPSSKS
B5: X67-H04: single point mutation of M142-H08 (P2); HV-CDR3 GGLLLWERELKSNYFDY (antibody, V domains shown)
VL: QDIQMTQSPSSLSAFVGDRVTITCRASQPIDNYLNWYHQKPGKAPKLLIYAASRLQSGVPSRLSGSGFGTDFTLTISSLQPEDFGNYYCQQSYTVPYTFGGGTKVEIR
VH: EVQLLESGGGLVQPGGSLRLSCAASGFTFSAYSMIWVRQAPGKGLEWVSYIRPSGGRTTYADSVKGRFTISRDNSKNTLYLQMNSLRAEDTAVYYCARGGLLLWERELKSNYFDYWGQGTLVTVSSASTKGPSVFPLAPSSKS
B6: X67-G05: single point mutation of M142-H08 (P2); HV-CDR3 GGLLLWRRELKSNYFDY (antibody, V domains shown)
VL: QDIQMTQSPSSLSAFVGDRVTITCRASQPIDNYLNWYHQKPGKAPKLLIYAASRLQSGVPSRLSGSGFGTDFTLTISSLQPEDFGNYYCQQSYTVPYTFGGGTKVEIR
VH: EVQLLESGGGLVQPGGSLRLSCAASGFTFSAYSMIWVRQAPGKGLEWVSYIRPSGGRTTYADSVKGRFTISRDNSKNTLYLQMNSLRAEDTAVYYCARGGLLLWRRELKSNYFDYWGQGTLVTVSSASTKGPSVFPLAPSSKS
B7: X67-B04: single point mutation of M142-H08 (P2); HV-CDR3 GGLLLWKRELKSNYFDY (antibody, V domains shown)
VL: QDIQMTQSPSSLSAFVGDRVTITCRASQPIDNYLNWYHQKPGKAPKLLIYAASRLQSGVPSRLSGSGFGTDFTLTISSLQPEDFGNYYCQQSYTVPYTFGGGTKVEIR
VH: EVQLLESGGGLVQPGGSLRLSCAASGFTFSAYSMIWVRQAPGKGLEWVSYIRPSGGRTTYADSVKGRFTISRDNSKNTLYLQMNSLRAEDTAVYYCARGGLLLWKRELKSNYFDYWGQGTLVTVSSASTKGPSVFPLAPSSKS
B8: X67-F10: single point mutation of M142-H08 (P2); HV-CDR3 GGLLLWTRELKSNYFDY (antibody, V domains shown)
VL: QDIQMTQSPSSLSAFVGDRVTITCRASQPIDNYLNWYHQKPGKAPKLLIYAASRLQSGVPSRLSGSGFGTDFTLTISSLQPEDFGNYYCQQSYTVPYTFGGGTKVEIR
VH: EVQLLESGGGLVQPGGSLRLSCAASGFTFSAYSMIWVRQAPGKGLEWVSYIRPSGGRTTYADSVKGRFTISRDNSKNTLYLQMNSLRAEDTAVYYCARGGLLLWTRELKSNYFDYWGQGTLVTVSSASTKGPSVFPLAPSSKS
B9: X67-H01: single point mutation of M142-H08 (P2); HV-CDR3 GGLLLWWRELKSNYFDY (antibody, V domains shown)
VL: QDIQMTQSPSSLSAFVGDRVTITCRASQPIDNYLNWYHQKPGKAPKLLIYAASRLQSGVPSRLSGSGFGTDFTLTISSLQPEDFGNYYCQQSYTVPYTFGGGTKVEIR
VH: EVQLLESGGGLVQPGGSLRLSCAASGFTFSAYSMIWVRQAPGKGLEWVSYIRPSGGRTTYADSVKGRFTISRDNSKNTLYLQMNSLRAEDTAVYYCARGGLLLWWRELKSNYFDYWGQGTLVTVSSASTKGPSVFPLAPSSKS
B10: X66-D03: single point mutation of M142-H08 (P1); HV-CDR3 GGLLLWFEELKSNYFDY (antibody, V domains shown)
VL: QDIQMTQSPSSLSAFVGDRVTITCRASQPIDNYLNWYHQKPGKAPKLLIYAASRLQSGVPSRLSGSGFGTDFTLTISSLQPEDFGNYYCQQSYTVPYTFGGGTKVEIR
VH: EVQLLESGGGLVQPGGSLRLSCAASGFTFSAYSMIWVRQAPGKGLEWVSYIRPSGGRTTYADSVKGRFTISRDNSKNTLYLQMNSLRAEDTAVYYCARGGLLLWFEELKSNYFDYWGQGTLVTVSSASTKGPSVFPLAPSSKS
B11: X67-B05: single point mutation of M142-H08 (P2); HV-CDR3 GGLLLWPRELKSNYFDY (antibody, V domains shown)
VL: QDIQMTQSPSSLSAFVGDRVTITCRASQPIDNYLNWYHQKPGKAPKLLIYAASRLQSGVPSRLSGSGFGTDFTLTISSLQPEDFGNYYCQQSYTVPYTFGGGTKVEIR
VH: EVQLLESGGGLVQPGGSLRLSCAASGFTFSAYSMIWVRQAPGKGLEWVSYIRPSGGRTTYADSVKGRFTISRDNSKNTLYLQMNSLRAEDTAVYYCARGGLLLWPRELKSNYFDYWGQGTLVTVSSASTKGPSVFPLAPSSKS
B12: X66-B05: single point mutation of M142-H08 (P1); HV-CDR3 GGLLLWFCELKSNYFDY (antibody, V domains shown)
VL: QDIQMTQSPSSLSAFVGDRVTITCRASQPIDNYLNWYHQKPGKAPKLLIYAASRLQSGVPSRLSGSGFGTDFTLTISSLQPEDFGNYYCQQSYTVPYTFGGGTKVEIR
VH: EVQLLESGGGLVQPGGSLRLSCAASGFTFSAYSMIWVRQAPGKGLEWVSYIRPSGGRTTYADSVKGRFTISRDNSKNTLYLQMNSLRAEDTAVYYCARGGLLLWFCELKSNYFDYWGQGTLVTVSSASTKGPSVFPLAPSSKS
B13: X66-H04: single point mutation of M142-H08 (P1); HV-CDR3 GGLLLWFFELKSNYFDY (antibody, V domains shown)
VL: QDIQMTQSPSSLSAFVGDRVTITCRASQPIDNYLNWYHQKPGKAPKLLIYAASRLQSGVPSRLSGSGFGTDFTLTISSLQPEDFGNYYCQQSYTVPYTFGGGTKVEIR
VH: EVQLLESGGGLVQPGGSLRLSCAASGFTFSAYSMIWVRQAPGKGLEWVSYIRPSGGRTTYADSVKGRFTISRDNSKNTLYLQMNSLRAEDTAVYYCARGGLLLWFFELKSNYFDYWGQGTLVTVSSASTKGPSVFPLAPSSKS
B14: X67-G09: single point mutation of M142-H08 (P2); HV-CDR3 GGLLLWLRELKSNYFDY (antibody, V domains shown)
VL: QDIQMTQSPSSLSAFVGDRVTITCRASQPIDNYLNWYHQKPGKAPKLLIYAASRLQSGVPSRLSGSGFGTDFTLTISSLQPEDFGNYYCQQSYTVPYTFGGGTKVEIR
VH: EVQLLESGGGLVQPGGSLRLSCAASGFTFSAYSMIWVRQAPGKGLEWVSYIRPSGGRTTYADSVKGRFTISRDNSKNTLYLQMNSLRAEDTAVYYCARGGLLLWLRELKSNYFDYWGQGTLVTVSSASTKGPSVFPLAPSSKS
B15: X67-B03: single point mutation of M142-H08 (P2); HV-CDR3 GGLLLWSRELKSNYFDY (antibody, V domains shown)
VL: QDIQMTQSPSSLSAFVGDRVTITCRASQPIDNYLNWYHQKPGKAPKLLIYAASRLQSGVPSRLSGSGFGTDFTLTISSLQPEDFGNYYCQQSYTVPYTFGGGTKVEIR
VH: EVQLLESGGGLVQPGGSLRLSCAASGFTFSAYSMIWVRQAPGKGLEWVSYIRPSGGRTTYADSVKGRFTISRDNSKNTLYLQMNSLRAEDTAVYYCARGGLLLWSRELKSNYFDYWGQGTLVTVSSASTKGPSVFPLAPSSKS

The target in this experiment is T1, pKal (Homo sapiens, UniProt P03952).
T1 construct: two disulfide linked polypeptides; a heavy chain of approximately 52 kDa and a catalytic domain of approximately 34 kDa; host or cells: human plasma
T1 sequence (P03952 391-638 limits assumed): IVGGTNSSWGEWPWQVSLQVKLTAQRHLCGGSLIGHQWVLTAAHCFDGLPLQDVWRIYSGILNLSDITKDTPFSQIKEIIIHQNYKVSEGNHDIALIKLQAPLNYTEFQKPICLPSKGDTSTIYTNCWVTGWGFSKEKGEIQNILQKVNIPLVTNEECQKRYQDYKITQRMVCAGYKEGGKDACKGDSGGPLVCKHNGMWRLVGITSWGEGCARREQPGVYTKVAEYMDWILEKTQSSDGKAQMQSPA
T1 sequence (P03952 20-390 partner limits assumed): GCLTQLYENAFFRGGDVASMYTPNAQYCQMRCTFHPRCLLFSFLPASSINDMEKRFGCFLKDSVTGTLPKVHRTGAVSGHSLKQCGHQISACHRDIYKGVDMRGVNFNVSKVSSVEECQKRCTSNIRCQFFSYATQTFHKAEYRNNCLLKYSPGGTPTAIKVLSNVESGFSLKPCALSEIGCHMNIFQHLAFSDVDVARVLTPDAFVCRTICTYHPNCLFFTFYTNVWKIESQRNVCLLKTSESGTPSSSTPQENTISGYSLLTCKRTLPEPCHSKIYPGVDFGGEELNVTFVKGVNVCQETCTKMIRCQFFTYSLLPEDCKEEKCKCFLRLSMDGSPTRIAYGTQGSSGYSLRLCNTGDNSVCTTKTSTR
As to the kind of experiment: Fab fragments (small scale) tested for inhibition against human pKal in an in vitro protease cleavage assay. It counts as biochemical. To be noted: Table 9. As to the method: By DNA sequencing, we recovered 61 of the possible 80 antibodies (Table 9). These antibodies were produced as Fab fragments in small scale (˜20 μg) and tested for inhibition against human pKal in an in vitro protease cleavage assay using Pro-Phe-Arg-aminomethylcoumarin as the synthetic peptide substrate. […] Five antibodies were then expressed in 293T cells and purified by protein A sepharose chromatography. The antibodies were analyzed by SDS-PAGE to determine which of the inhibitory mutants are not cleaved by the host cell protease(s) (data not shown).
Take B1: the “Inhibit as a Fab?” value was “Yes”.

As to B2, the “Inhibit as a Fab?” value is recorded as “No”.

On to B3, for which the “Inhibit as a Fab?” value is on record as “Yes”.

For B4, the “Inhibit as a Fab?” value is recorded as “Yes”.

For B5, the “Inhibit as a Fab?” value was “Yes”.

Regarding B6, the “Inhibit as a Fab?” value is “Yes”.

B7: the “Inhibit as a Fab?” value is given as “Yes”.

Turning to B8, the “Inhibit as a Fab?” value is reported as “Yes”.

On to B9, for which the “Inhibit as a Fab?” value is listed as “Yes”.

Consider B10, for which the “Inhibit as a Fab?” value was “No”.

On to B11, for which the “Inhibit as a Fab?” value is reported as “No”.

For the molecule B12, the “Inhibit as a Fab?” value is “No”.

With B13, the “Inhibit as a Fab?” value was “No”.

In the case of B14, the “Inhibit as a Fab?” value is “Yes”.

For the molecule B15, the “Inhibit as a Fab?” value is “Yes”.
